The experiment has as its target Kcnj13 (Kir7.1) from D. rerio fused to mCherry, with N-terminal His-tags (D. rerio). The experiment is described as follows: mass photometry.

For the substance “Kcnj13 (Kir7.1) from D. rerio fused to mCherry, with N-terminal His-tags (natural protein)”, the stoichiometry N – broadly, the number of molecules, sites or subunits per partner or assembly – came out at 4.

(Values after paper doi:10.1101/2022.12.05.519077.)
